According to the supplement of paper PMC9112550, “Optimization of the antimicrobial peptide Bac7 by deep mutational scanning” (BMC Biology, 2022):

Each sequence was assayed on Escherichia coli TOP10 (assay: shrunken log2 fold change of peptide-encoding DNA abundance (4.5 h post-induction vs induction); higher = less antimicrobial activity (less host growth inhibition)). Conditions: time post-induction: 4.5 h; library: site-saturation at positions 5, 18, 19, 20.
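Also: peptides expressed intracellularly from a pBAD plasmid library in pooled LB shake-flask culture, induced with 0.3% L-arabinose, DNA abundance read by NGS, three biological replicates, DESeq2 with apeglm shrinkage.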

| Sequence | shrunken log2 fold change |
| --- | --- |
| RRIRVRPPRLPRPRPRPNVHPRP | -0.546 |
| RRIRVRPPRLPRPRPRPNWFPRP | 0.0817 |
| RRIRVRPPRLPRPRPRPNWRPRP | 0.4 |
| RRIRVRPPRLPRPRPRPNWSPRP | -0.114 |
| RRIRVRPPRLPRPRPRPNYIPRP | -0.631 |
| RRIRVRPPRLPRPRPRPPDYPRP | -0.114 |
| RRIRVRPPRLPRPRPRPPFHPRP | 0.0102 |
| RRIRVRPPRLPRPRPRPPFKPRP | 0.163 |
| RRIRVRPPRLPRPRPRPPFQPRP | 0.164 |
| RRIRVRPPRLPRPRPRPPGKPRP | 0.0564 |
| RRIRVRPPRLPRPRPRPPIKPRP | -0.151 |
| RRIRVRPPRLPRPRPRPPILPRP | -0.313 |
| RRIRVRPPRLPRPRPRPPKGPRP | 0.18 |
| RRIRVRPPRLPRPRPRPPLDPRP | 0.433 |
| RRIRVRPPRLPRPRPRPPLYPRP | -0.00849 |
| RRIRVRPPRLPRPRPRPPMWPRP | 0.303 |
| RRIRVRPPRLPRPRPRPPPFPRP | 0.375 |
| RRIRVRPPRLPRPRPRPPPGPRP | 1.01 |
| RRIRVRPPRLPRPRPRPPPLPRP | 0.669 |
| RRIRVRPPRLPRPRPRPPPWPRP | 0.758 |
| RRIRVRPPRLPRPRPRPPQQPRP | 0.575 |
| RRIRVRPPRLPRPRPRPPRHPRP | 0.252 |
| RRIRVRPPRLPRPRPRPPRIPRP | 0.116 |
| RRIRVRPPRLPRPRPRPPSTPRP | 0.238 |
| RRIRVRPPRLPRPRPRPPTNPRP | 1.14 |

| Sequence | shrunken log2 fold change |
| --- | --- |
| RRIRVRPPRLPRPRPRPPWRPRP | 0.57 |
| RRIRVRPPRLPRPRPRPPYVPRP | -0.153 |
| RRIRVRPPRLPRPRPRPQAKPRP | 0.0434 |
| RRIRVRPPRLPRPRPRPQEIPRP | -0.0438 |
| RRIRVRPPRLPRPRPRPQFSPRP | -0.0362 |
| RRIRVRPPRLPRPRPRPQGFPRP | -0.0921 |
| RRIRVRPPRLPRPRPRPQGWPRP | 0.522 |
| RRIRVRPPRLPRPRPRPQGYPRP | 0.0811 |
| RRIRVRPPRLPRPRPRPQHDPRP | -0.0871 |
| RRIRVRPPRLPRPRPRPQITPRP | -0.229 |
| RRIRVRPPRLPRPRPRPQKPPRP | 0.116 |
| RRIRVRPPRLPRPRPRPQKYPRP | -0.783 |
| RRIRVRPPRLPRPRPRPQLFPRP | 0.229 |
| RRIRVRPPRLPRPRPRPQLNPRP | -0.292 |
| RRIRVRPPRLPRPRPRPQMKPRP | -0.0794 |
| RRIRVRPPRLPRPRPRPQPNPRP | -0.125 |
| RRIRVRPPRLPRPRPRPQPVPRP | -0.195 |
| RRIRVRPPRLPRPRPRPQQPPRP | 0.124 |
| RRIRVRPPRLPRPRPRPQSCPRP | -0.342 |
| RRIRVRPPRLPRPRPRPQSEPRP | -0.107 |
| RRIRVRPPRLPRPRPRPQSPPRP | -0.221 |
| RRIRVRPPRLPRPRPRPQSQPRP | -0.214 |
| RRIRVRPPRLPRPRPRPQTQPRP | 0.104 |
| RRIRVRPPRLPRPRPRPQWVPRP | -0.222 |
| RRIRVRPPRLPRPRPRPQYKPRP | -0.527 |

| Sequence | shrunken log2 fold change |
| --- | --- |
| RRIRVRPPRLPRPRPRPRAKPRP | 0.16 |
| RRIRVRPPRLPRPRPRPRCEPRP | 0.133 |
| RRIRVRPPRLPRPRPRPREPPRP | 0.947 |
| RRIRVRPPRLPRPRPRPRFEPRP | 0.376 |
| RRIRVRPPRLPRPRPRPRFWPRP | 0.64 |
| RRIRVRPPRLPRPRPRPRGRPRP | 0.197 |
| RRIRVRPPRLPRPRPRPRIHPRP | -0.219 |
| RRIRVRPPRLPRPRPRPRILPRP | -0.412 |
| RRIRVRPPRLPRPRPRPRKLPRP | -0.0444 |
| RRIRVRPPRLPRPRPRPRMEPRP | 0.413 |
| RRIRVRPPRLPRPRPRPRMIPRP | 0.224 |
| RRIRVRPPRLPRPRPRPRMQPRP | 0.123 |
| RRIRVRPPRLPRPRPRPRNAPRP | 0.225 |
| RRIRVRPPRLPRPRPRPRNDPRP | -0.00857 |
| RRIRVRPPRLPRPRPRPRRNPRP | 0.108 |
| RRIRVRPPRLPRPRPRPRRSPRP | 0.349 |
| RRIRVRPPRLPRPRPRPRSFPRP | 0.029 |
| RRIRVRPPRLPRPRPRPRSTPRP | 0.0765 |
| RRIRVRPPRLPRPRPRPRTFPRP | -0.284 |
| RRIRVRPPRLPRPRPRPRVEPRP | 0.558 |
| RRIRVRPPRLPRPRPRPRVMPRP | 0.188 |
| RRIRVRPPRLPRPRPRPRVSPRP | 0.205 |
| RRIRVRPPRLPRPRPRPRWDPRP | 0.193 |
| RRIRVRPPRLPRPRPRPRWEPRP | 0.329 |
| RRIRVRPPRLPRPRPRPRWHPRP | 0.217 |
